Source: patent US20140377282A1 (APEXIGEN, published 2014)
Positions count from the first letter of the chain named. Blank lines part the entries; values can stand above or below the binder they belong to.

Tests used:
recombinant human KDR [1] = biological target: T1, recombinant human KDR (human, UniProt P35968 20-764, limits assumed); assay: inhibition of KDR binding to VEGF, ligand-receptor binding assay
T1 construct: also called VEGFR2

recombinant human KDR [2] = biological target: T1, recombinant human KDR; assay: method not stated
mouse KDR = biological target: T2, mouse KDR (mouse, UniProt P35918 20-762, limits assumed); assay: restated in the summary of the Examples
T2 construct: also called murine KDR
T2 sequence (P35918 20-762 limits assumed): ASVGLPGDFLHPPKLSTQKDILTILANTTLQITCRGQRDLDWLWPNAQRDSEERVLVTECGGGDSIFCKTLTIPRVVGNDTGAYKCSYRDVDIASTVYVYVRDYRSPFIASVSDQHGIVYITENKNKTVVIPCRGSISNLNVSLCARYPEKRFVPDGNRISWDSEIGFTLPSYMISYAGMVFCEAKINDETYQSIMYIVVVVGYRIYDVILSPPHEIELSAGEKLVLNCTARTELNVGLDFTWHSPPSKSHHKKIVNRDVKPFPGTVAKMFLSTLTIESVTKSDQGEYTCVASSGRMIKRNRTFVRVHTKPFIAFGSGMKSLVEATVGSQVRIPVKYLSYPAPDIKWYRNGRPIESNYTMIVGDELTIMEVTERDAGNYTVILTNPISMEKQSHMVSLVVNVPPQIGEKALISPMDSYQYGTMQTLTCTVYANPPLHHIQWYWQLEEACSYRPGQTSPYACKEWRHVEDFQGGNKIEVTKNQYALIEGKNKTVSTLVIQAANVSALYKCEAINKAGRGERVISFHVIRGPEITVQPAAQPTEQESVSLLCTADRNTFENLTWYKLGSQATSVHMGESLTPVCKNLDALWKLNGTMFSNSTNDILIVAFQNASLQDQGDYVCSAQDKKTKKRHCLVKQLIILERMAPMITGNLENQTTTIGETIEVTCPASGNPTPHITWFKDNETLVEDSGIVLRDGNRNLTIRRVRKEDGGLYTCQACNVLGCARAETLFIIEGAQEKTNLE

[3] = biological target: T3, human VEGF (coated in the selectivity ELISA) (human, UniProt P15692-4 27-191, limits assumed); assay: direct ELISA: 1 µg/ml protein coated, 1 µg/ml APX004, goat anti-human HRP-conjugated IgG
T3 construct: the sentence lists it last after 'rabbit Fc-fusion protein of'
T3 sequence (P15692 other isoform, or with tags, fused parts or gaps limits assumed): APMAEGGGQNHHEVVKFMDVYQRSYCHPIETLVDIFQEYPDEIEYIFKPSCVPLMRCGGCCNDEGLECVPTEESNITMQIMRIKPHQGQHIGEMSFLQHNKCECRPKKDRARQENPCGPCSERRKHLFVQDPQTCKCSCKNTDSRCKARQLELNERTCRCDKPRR
Description: (§1) Binding selectivity of APX004 was assessed by direct ELISA to VEGFR family proteins. A total of 1 μg/ml of rabbit Fc-fusion protein of human KDR, mouse KDR, human VEGFR1, human VEGFR3, human OX40L and human VEGF were coated on ELISA plates followed by incubation with 1 μg/ml of APX004. Bound APX004 was detected using goat anti-human HRP-conjugated IgG.

[4] = biological target: T4, rabbit Fc-fusion protein of mouse KDR (mouse; rabbit, UniProt P35918 20-762, limits assumed); assay: as above
T4 construct: not shown: rabbit immunoglobulin Fc
T4 sequence (P35918 20-762 limits assumed): as the sequence (P35918 20-762 limits assumed) above
Description: as §1

[5] = biological target: T5, rabbit Fc-fusion protein of human VEGFR3 (human; rabbit, UniProt P35916 25-775, limits assumed); assay: as above
T5 construct: not shown: rabbit immunoglobulin Fc
T5 sequence (looked up): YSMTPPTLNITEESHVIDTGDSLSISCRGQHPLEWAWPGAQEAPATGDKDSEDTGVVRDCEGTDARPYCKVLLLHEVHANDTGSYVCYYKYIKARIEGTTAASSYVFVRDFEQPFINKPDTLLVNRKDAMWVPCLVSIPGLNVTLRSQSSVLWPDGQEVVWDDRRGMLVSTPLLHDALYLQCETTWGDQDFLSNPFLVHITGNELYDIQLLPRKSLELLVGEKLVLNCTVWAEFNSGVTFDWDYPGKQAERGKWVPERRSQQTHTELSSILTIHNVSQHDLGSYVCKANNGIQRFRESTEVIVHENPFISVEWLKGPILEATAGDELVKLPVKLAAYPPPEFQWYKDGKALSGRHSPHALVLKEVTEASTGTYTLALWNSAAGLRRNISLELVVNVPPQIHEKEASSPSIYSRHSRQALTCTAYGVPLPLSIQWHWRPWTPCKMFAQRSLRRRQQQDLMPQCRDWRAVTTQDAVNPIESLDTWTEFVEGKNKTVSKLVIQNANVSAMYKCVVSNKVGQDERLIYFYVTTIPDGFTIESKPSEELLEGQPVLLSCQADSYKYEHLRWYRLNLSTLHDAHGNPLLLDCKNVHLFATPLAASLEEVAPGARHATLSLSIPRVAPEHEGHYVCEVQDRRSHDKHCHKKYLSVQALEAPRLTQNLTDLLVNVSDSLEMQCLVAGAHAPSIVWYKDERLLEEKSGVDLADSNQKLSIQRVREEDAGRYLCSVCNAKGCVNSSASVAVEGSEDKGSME
Description: as §1

[6] = biological target: T6, rabbit Fc-fusion protein of human VEGFR1 (human; rabbit, UniProt P17948 27-758, limits assumed); assay: as above
T6 construct: also called Flt-1; not shown: rabbit immunoglobulin Fc
T6 sequence (P17948 27-758 limits assumed): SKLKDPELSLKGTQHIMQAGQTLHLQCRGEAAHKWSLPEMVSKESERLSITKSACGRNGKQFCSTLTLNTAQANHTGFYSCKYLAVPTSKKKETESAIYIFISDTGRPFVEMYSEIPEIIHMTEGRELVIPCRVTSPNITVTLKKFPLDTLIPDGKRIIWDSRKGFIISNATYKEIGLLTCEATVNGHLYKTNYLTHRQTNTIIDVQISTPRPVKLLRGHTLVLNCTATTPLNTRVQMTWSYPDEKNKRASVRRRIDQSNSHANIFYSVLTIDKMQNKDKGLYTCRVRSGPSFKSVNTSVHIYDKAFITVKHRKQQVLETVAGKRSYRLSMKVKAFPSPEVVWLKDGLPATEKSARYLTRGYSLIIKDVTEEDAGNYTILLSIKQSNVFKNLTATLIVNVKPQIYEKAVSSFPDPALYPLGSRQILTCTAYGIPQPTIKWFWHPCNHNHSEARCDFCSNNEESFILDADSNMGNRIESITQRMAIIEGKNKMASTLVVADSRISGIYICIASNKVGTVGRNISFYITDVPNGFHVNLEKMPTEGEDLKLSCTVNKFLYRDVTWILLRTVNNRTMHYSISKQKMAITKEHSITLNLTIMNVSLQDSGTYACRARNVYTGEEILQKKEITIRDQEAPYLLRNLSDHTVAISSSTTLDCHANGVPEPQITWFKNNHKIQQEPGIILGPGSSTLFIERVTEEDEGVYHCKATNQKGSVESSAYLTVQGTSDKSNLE
Description: as §1

recombinant human KDR [7] = biological target: T1, recombinant human KDR; assay: competition ELISA: APX004 pre-incubated with 5 µg/ml recombinant human KDR, then on coated VEGF-A; bound KDR detected
Description: (§2) An ELISA-based KDR-VEGF binding assay was developed and used to assess the potency of APX004 at blocking KDR binding to VEGF. A total of 2 μg/ml VEGF was coated on ELISA plates. APX004, the parental rabbit antibody R-36 or IgG1 isotype control antibody were pre-incubated with 5 μg/ml recombinant human KDR before being transferred to the VEGF-A coated ELISA plates. KDR bound to immobilized VEGF was detected by a mouse anti-KDR monoclonal antibody, followed by the addition of goat anti-mouse IgG conjugated with alkaline phosphatase (Fisher Scientific/Pierce Biotechnology, Rockford, Ill.). ELISA plates were developed with p-nitrophenyl phosphate substrate and absorbance at 405 nm was recorded. All experiments were performed in triplicate.

recombinant human KDR [8] = biological target: T1, recombinant human KDR; assay: ELISA: antibody pre-incubated with 5 µg/ml recombinant human KDR, then transferred to a VEGF-coated plate; KDR bound to VEGF detected (OD405); blocked ligand VEGF
Description: as §2

T1 sequence (P35968 20-764 limits assumed): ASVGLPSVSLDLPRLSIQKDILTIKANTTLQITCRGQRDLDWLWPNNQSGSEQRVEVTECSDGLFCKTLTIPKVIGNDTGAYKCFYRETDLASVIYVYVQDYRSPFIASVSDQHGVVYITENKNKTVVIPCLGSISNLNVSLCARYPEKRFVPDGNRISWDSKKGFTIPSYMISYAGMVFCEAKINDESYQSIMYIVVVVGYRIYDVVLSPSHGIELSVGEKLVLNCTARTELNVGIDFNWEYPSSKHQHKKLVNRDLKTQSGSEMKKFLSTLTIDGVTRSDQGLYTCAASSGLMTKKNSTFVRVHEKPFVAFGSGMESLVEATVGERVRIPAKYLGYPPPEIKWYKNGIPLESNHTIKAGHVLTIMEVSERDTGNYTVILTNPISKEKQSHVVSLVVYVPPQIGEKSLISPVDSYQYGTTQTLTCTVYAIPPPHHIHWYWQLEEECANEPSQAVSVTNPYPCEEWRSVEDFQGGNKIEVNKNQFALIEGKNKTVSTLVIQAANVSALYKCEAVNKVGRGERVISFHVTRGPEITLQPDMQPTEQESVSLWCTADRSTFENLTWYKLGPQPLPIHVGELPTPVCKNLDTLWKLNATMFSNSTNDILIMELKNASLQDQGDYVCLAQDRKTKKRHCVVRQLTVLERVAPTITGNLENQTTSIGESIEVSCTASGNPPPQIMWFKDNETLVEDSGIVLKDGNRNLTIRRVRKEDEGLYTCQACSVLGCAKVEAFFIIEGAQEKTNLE

IC50 (recombinant human KDR [1]): 32.9 nM
B3: rabbit anti-KDR antibody clone 92 (antibody, V domains shown)
VH: QSVEESGGRLVTPGTPLTLTCTVSGFSLSSNAMSWVRQAPGEGLEWIGTISSSGSTYYATWVKGRFTISKTSTTVDLKMTSLTAADTATYFCARGDDDVSDYFYYFPIWGPGTLVTVSS
VL: AVVLTQTASPVSGAVGGTVTIKCQASQNIYNNLAWYRQKPGQPPKLLIYAASKLASGVPSRFSGSRSGTQFTLSISDLECADAATYYCQSYYFDSSSTDAAFGGGTEVVVK
notes: rabbit monoclonal antibody, recombinantly expressed and purified for characterization

IC50 (recombinant human KDR [1]): 7.54 nM
B6: rabbit anti-KDR antibody clone 43 (antibody, V domains shown)
VH: QSVEESGGRLVTPGTPLTLTCTVSGFSLSSYAMSWFRQAPGKGLEWIGLIRSSGATYYASWAKGRFTISKASTTVDLKFTSPTTEDTATYFCARVLWPGDIAYAYHNIWGPGTLVTVSS
VL: DLVMTQTPSPVSAAVGGTVTINCQASEEIGGNLAWYQQKPGQPPKLLIYSASTLTSGVPSRFKGSGSGTEYTLTISDLECADAATYYCQYTYYGFSYVGPFGGGTEVVVK
notes: as for B3

IC50 (recombinant human KDR [1]): 9.77 nM
B7: rabbit anti-KDR antibody clone 83 (antibody, V domains shown)
VH: B6 VH with V3L, F26I, S27D, S30A, F36V, A71T, F79M, D100E
VL: B6 VL with L2V, S9A, P10S, A13E, A14P, T53S, G66E, T91S, S96N
notes: as for B3

IC50 (recombinant human KDR [1]): 4.56 nM
B8: rabbit anti-KDR antibody clone 81 (antibody, V domains shown)
VH: B6 VH with S30T
VL: B6 VL with S76N, T91P
notes: as for B3

The next lines start with the binder.

B1: rabbit anti-KDR antibody clone 15 (antibody, V domains shown)
VH: QSLEESGGDLVKPGTSLTLTCTASGFSFSARHFMYWVRQAPGKGLEWIGCIDIGSGSTYYTSWAKDRFTISKPSSTTVTLQMTSLTAADTATYFCARSSGYPYYFTLWGPGTLVTVSS
VL: AVVLTQTTSSVSADVGGTVTIKCQASENIYSLLAWYQQKPGQPPKLLIYSASDLASGVPSRFSGSGFGTEFTLTISDLECADAATYHCQSYYYSGSSADTGAFGGGTEVVVK
notes: as for B3
IC50 (recombinant human KDR [1]): 17.5 nM

B2: rabbit anti-KDR antibody clone 27 (antibody, V domains shown)
VH: QSVEESGGRLVTPGTPLTLTCTASGFALNDFAMSWVRQAPGKGLEWIGMIASSGNTFYASWAKGRFTISKTSTTVDLKFTSPTTEDTATYFCARVLWPGYIAYAYHNIWGPGTLVTVSS
VL: DPVLTQTPASVSAVVGGTVTINCQTSEDIASNLAWYQQKSGQRPKLLIYEASKLASGVPSRFKGSGSGTEYTLTISDLECADAATYYCQYTYYGSSYLGAFGGGTEVVVK
notes: as for B3
IC50 (recombinant human KDR [1]): 5.95 nM

B4: rabbit anti-KDR antibody clone 23 (antibody, V domains shown)
VH: B3 VH
VL: B3 VL
notes: as for B3
IC50 (recombinant human KDR [1]): 21.4 nM

B5: rabbit anti-KDR antibody clone 24 (antibody, V domains shown)
VH: B3 VH
VL: B3 VL
notes: as for B3
IC50 (recombinant human KDR [1]): 19.8 nM

B9: APX004 (humanized clone 36 anti-KDR antibody) (antibody, human IgG1, kappa, V domains shown)
VH: EVQLVESGGGLVQPGGSLRLSCAASGFDLSSYAMSWVRQAPGKGLEWVGIIGSGGSTYYASWAKGRFTISKDSSKNTVYLQMNSLRAEDTAVYFCARVLWAGSVAYAYHNIWGPGTLVTVSS
VL: DIQMTQSPSSLSASVGDRVTINCQASEELGSNLAWYQQKPGKPPKLLIYSASTLASGVPSRFSGSGSGTDYTLTISSLQPEDFATYYCQYTYFGSSYLGAFGGGTKVEIKR
notes: also called humanized 36
Kd (recombinant human KDR [2]): 0.053 nM | binding result (mouse KDR): binds | binding result [3]: no binding (tested: 1 µg/ml) | binding result [4]: binds | binding result [5]: no binding (tested: 1 µg/ml) | binding result [6]: no binding (tested: 1 µg/ml) | IC50 (recombinant human KDR [7]): 2.6 nM

B10: clone 36 rabbit anti-KDR antibody (antibody, V domains shown)
VH: QSVEESGGRLVTPGTPLTLTCTVSGIDLNNYAMSWVRQAPGKGLEWIGIIGSSGSIFYASWAKGRITISKTSTTVDLKFTSLTTEDTATYFCARVLWAGSVAYAYHNIWGPGTLVTVSS
VL: DPVMTQTPASVSEPVGGTVTINCQASEELGSNLAWYQQKPGQPPKLLIYSASTLASGVPSRFKGSGSGTEYTLTISDLECADAATYYCQYTYFGSSYLGAFGGGTEVVVK
notes: rabbit IgG, recombinantly expressed in 293-6E cells; also called R-36; parental rabbit monoclonal antibody 36
IC50 (recombinant human KDR [8]): 3.1 nM | IC50 (recombinant human KDR [1]): 6.25 nM
